According to patent US12397061B2, “Systems, methods, and compositions for the generation of water-soluble cannabinoids utilizing fatty-acid binding proteins and fatty-acid binding-like proteins as cannabinoid-carriers” (Trait Biosciences, Inc., priority 2019, dated 2025):
Numbering of substitutions follows the chain as printed.

B1: mdl_r3_1403_sm: Engineered chicken (Gallus gallus) FABP7 variant selected by Smina score, SEQ ID NO. 80 (protein, listed as Gallus gallus)
chain: MVEAFCATWKLADSHNQDEGLKALGVGFAMRQLFNVDKPTVIISSEGDKVVIRIEGTVKNTEISFKLGEEFDETTADDRNCKSVVTLDGDKLVHVQKWDGKETNVVREIKDGRMVATFTFGDVVAVAHYEKA
B2: Plant FABP WT: Wild type FABP from the plant Rhodamnia argentea, SEQ ID NO. 77 (protein, listed as Rhodamnia argentea)
chain: MTEFAGVYEFVKDDGKFEEILKAMDVNFLIRKVAGKMNPNTAIDVLDDGKMAFKTITPLKTVEIHFELGKEYENKRLDGTVVKGIVTRDGNKLIQEQMSEPKFKVIRELDGPEKLIVTWMCKDIVCVREYKRIQT
B3: Chicken FABP7 WT: Wild type chicken (Gallus gallus) FABP7, SEQ ID NO. 74 (protein, listed as Gallus gallus)
chain: MVEAFCATWKLADSHNFDEYMKALGVGFAMRQVGNVTKPTVIISSEGDKVVIRTQSTFKNTEISFKLGEEFDETTPDDRNCKSVVTLDGDKLVHVQKWDGKETNFVREIKDGRMVMTLTFGDVVAVRHYEKA
B4: mdl_r5_0225_ro: Engineered chicken (Gallus gallus) FABP7 variant selected by Rosetta score, SEQ ID NO. 79 (protein, listed as Gallus gallus)
chain: B3 chain with F17M, Y20A, M21L, L24W, M30I, G34A, T54M, P76A, F105V, L118V
B5: mdl_r5_1652_ro: Rosetta-engineered pig (Sus scrofa) FABP1 variant, SEQ ID NO. 81 (protein, listed as Sus scrofa)
chain: MNFSGKYQVQSQENFEAFMKAVGQPDELIQKGKDIKGTSEIVQNGKHFKVTITTGSKVVQAEFTLGEECEAETDTGEKVKVVVQLEGDNKAVVTAKGIKAVFELNGDIITATATLGDIVFKRISKR

Assays:
cannabinoid receptor = conditions: cited from earlier work
[1] = FABP binding to cannabinoids by ANS displacement (CBD as ligand); conditions: for binding to CBD by ANS displacement: 2 uM protein, 20 uM ANS, 33 uM CBD, decrease in fluorescence vs protein without ligand
[2] = FABP binding to cannabinoids by ANS displacement (THC as ligand); conditions: for binding to THC by ANS displacement: 2 uM protein, 20 uM ANS, 33 uM THC, decrease in fluorescence vs protein without ligand
[3] = listed as Wild type FABP from chicken

Molecule | binding to CBD by ANS displacement [1] | binding to THC by ANS displacement [2] | further results
C=C(C)[C@@H]1CCC(C)=C[C@H]1c1c(O)cc(CCCCC)cc1O [CBD, cannabidiol] | – | – | affinity for the cannabinoid receptor (cannabinoid receptor): do not have significant affinity
B1 | no binding | no binding | –
B2 | bind | bind | –
B3 | no, or negligible binding | no, or negligible binding | binding to CBD by ANS displacement [1, 3]: no binding; binding to THC by ANS displacement [2, 3]: no binding
B4 | binding to CBD | not THC | –
B5 | – | – | binding to CBD relative to the wild type based on relative change in fluorescence ([1]; FIG. 7, ANS displacement): improved binding; binding to THC relative to the wild type based on relative change in fluorescence ([2]; FIG. 7, ANS displacement): improved binding
